The source of these data is article PMC13399505.

The target in test [1] is BUNV ∆7-Gc-HA (HA-tagged head/stalk-deleted Gc glycoprotein expressed by rBUNV-∆7-Gc-HA) (Bunyamwera orthobunyavirus). In words: affinity purification with mass spectrometry; C6/36 (insect) cells mock-infected or infected at MOI 1, 24 hpi; anti-HA immunoprecipitation of Gc-HA, TMTpro 16plex TMT-MS of the bead fractions, three biological repeats; abundances normalised to common Gc peptides.

The target is the same in test [2]. In words: affinity purification with mass spectrometry; A549 (mammalian) cells mock-infected or infected at MOI 1, 24 hpi; anti-HA immunoprecipitation of Gc-HA, TMTpro 16plex TMT-MS of the bead fractions, three biological repeats; abundances normalised to common Gc peptides.

Regarding “BUNV nucleocapsid protein (NP) (from UniProt P16495 1-233) (natural protein)”, the log2 fold change of NP precipitated, WT-Gc-HA over ∆7-Gc-HA (log2 fold change) was determined as 2.76 in test [1] and 0.24 in test [2].
